The supplement of paper PMC9732359
± gives the uncertainty stated by the source.

Test: protein stability index of a GFP-peptide fusion (yeast GPS) (PSI 1-4); higher = more stable; sorted into four equal gates, so the index is relative within each strain
In short: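 The protein stability index combines read frequencies across sorting gates, each weighted by its gate number and then summed. To obtain those frequencies, a pooled yeast library of GFP fusions to tiled 17-residue yeast protein peptides, on a plasmid also expressing Cherry, was grown to mid-log phase in leucine-free medium. The cells were sorted into four equal gates by GFP/Cherry ratio before plasmid amplification by PCR and Illumina sequencing.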

Sequence | protein stability index (doa10∆) | protein stability index (pdr5∆) | protein stability index (san1∆) | protein stability index (ubr1∆)
LLEKANNQQRLLLKKLD [SMC3] | 2.31 ± 0.074 | 2.56 ± 0.074 | 2.28 ± 0.06 | 2.39 ± 0.044
GEKIDSNKPIFLFAPEL [SWI1] | 2.62 ± 0.1 | 2.54 ± 0.21 | 2.59 ± 0.21 | 2.91 ± 0.23
EVRRAAMLNLINDNNTR [YCG1] | 3.32 ± 0.12 | 3.41 ± 0.11 | 2.94 ± 0.11 | 3.13 ± 0.1
ILNSYGVLKPDITFFGE [SIR2] | 3.27 ± 0.069 | 3.13 ± 0.072 | 3.21 ± 0.049 | 3.31 ± 0.062
DRVQQDSEDEDSMKDTT [YML031W/NDC1] | 3.25 ± 0.14 | 3.22 ± 0.16 | 3.26 ± 0.091 | 3.25 ± 0.07
KLLKSLLLNYLELIGVL [MED7] | 1.86 ± 0.052 | 1.56 ± 0.052 | 1.14 ± 0.098 | 1.33 ± 0.058
QNYRLDGRSFDQFRDVE [RRP45] | 3.42 ± 0.15 | 3.26 ± 0.16 | 3.34 ± 0.13 | 3.32 ± 0.092
SVPLRKGDRALLVKLSK [BRR2] | 2.46 ± 0.17 | 3.33 ± 0.18 | 3.06 ± 0.094 | 2.99 ± 0.15
LESISHAGTAIGIMASD [PRE9] | 1.45 ± 0.14 | 2.15 ± 0.1 | 2.06 ± 0.14 | 1.5 ± 0.13
VMWGKVTRTHGNSGVVR [RPL33A] | 2.83 ± 0.071 | 2.94 ± 0.075 | 2.97 ± 0.051 | 2.98 ± 0.07
LIIRNDSLSGAVIAAIM [RPT3] | 3.17 ± 0.11 | 3.09 ± 0.11 | 2.94 ± 0.21 | 3.12 ± 0.098
GVQTAYIDYSSKRYIPS [RRP40] | 2.43 ± 0.067 | 2.61 ± 0.057 | 2.48 ± 0.1 | 2.33 ± 0.068
EEEVTDQLEDLREHFKN [QCR6] | 3.14 ± 0.17 | 3.06 ± 0.083 | 3.26 ± 0.09 | 3.29 ± 0.14
SKLSEHLNHYILLRYHH [YCG1] | 2.16 ± 0.067 | 1.73 ± 0.059 | 1.82 ± 0.091 | 2.02 ± 0.062
DVEVDDDFTNELKAELD [SEM1] | 3.25 ± 0.13 | 3.55 ± 0.11 | 3.54 ± 0.085 | 3.36 ± 0.056
QTIMKMGPLSNIAQMIP [SRP54] | 2.6 ± 0.081 | 2.67 ± 0.068 | 2.58 ± 0.08 | 2.99 ± 0.07
FLERFDFYTRHHFTCEI [ITC1] |  | 2.26 ± 0.097 | 2.31 ± 0.16 | 2.61 ± 0.11
PNTRDAESEAITVTAKQ [SWI3] | 3.08 ± 0.075 | 3.23 ± 0.056 | 3.17 ± 0.063 | 3.15 ± 0.05
FHKQQAHFWKPVLNLDK [RPL28] | 2.93 ± 0.067 | 3.19 ± 0.056 | 2.76 ± 0.057 | 2.93 ± 0.052
FPTRLGQGYRKVGIWPY [YJL039C/NUP192] | 3.49 ± 0.17 | 3.25 ± 0.14 | 2.96 ± 0.12 | 
NWRRLSGRNIHLAVVCV [SSN2] | 2.12 ± 0.085 | 1.58 ± 0.044 | 1.55 ± 0.078 | 2.86 ± 0.045
GKTSFFQALGVPTKIAR [RPP0] | 3.24 ± 0.1 | 3.29 ± 0.091 | 2.98 ± 0.11 | 3.26 ± 0.071
DHIAIDWEDEEKYEDED [DSN1] | 2.52 ± 0.15 | 2.86 ± 0.12 | 2.55 ± 0.09 | 2.12 ± 0.08
VFVDGEANWPLPVNIRR [RPO21] | 2.99 ± 0.081 | 3.06 ± 0.085 | 3.12 ± 0.13 | 3.13 ± 0.072
LTSQAPQTTQMFQSQSQ [YDL088C/ASM4] | 3.12 ± 0.11 | 3.16 ± 0.071 | 3.08 ± 0.046 | 3.06 ± 0.057
VARFLHFNGIRRLDALV [ITC1] | 3.44 ± 0.16 | 3.45 ± 0.11 | 3.41 ± 0.058 | 3.35 ± 0.08
EKSDALVGVYRQQQENS [SMC1] | 3.25 ± 0.13 | 3.37 ± 0.098 | 3.41 ± 0.12 | 2.85 ± 0.096

Sequence | protein stability index (doa10∆) | protein stability index (pdr5∆) | protein stability index (san1∆) | protein stability index (ubr1∆)
QNPMRDLKIEKLVLNIS [RPL11A] | 3.04 ± 0.076 | 3.09 ± 0.08 | 3.33 ± 0.082 | 2.84 ± 0.11
QPPTNVQPTIGQLPQLP [SNF5] | 3.14 ± 0.055 | 3.12 ± 0.063 | 3.09 ± 0.054 | 3.15 ± 0.043
FEHGRTPAEMSRPATTT [FAS2] | 2.72 ± 0.064 | 3.13 ± 0.081 | 2.41 ± 0.09 | 2.79 ± 0.1
ESSLTISLYFNDILDEL [ECM29] | 1.89 ± 0.06 | 2.25 ± 0.051 | 2.38 ± 0.07 | 2.4 ± 0.061
SFQKKSNDKVVEWINPS [ISW2] | 3.12 ± 0.069 | 3.39 ± 0.072 | 3.1 ± 0.12 | 3.19 ± 0.088
ETPSRLLLSPDQWYCID [ITC1] | 2.8 ± 0.062 | 3.21 ± 0.085 | 3.16 ± 0.075 | 2.81 ± 0.051
LVRELYQWRDLIARRDD [RRP6] | 2.96 ± 0.056 | 2.77 ± 0.062 | 2.65 ± 0.055 | 2.25 ± 0.043
REAYIENFAKGEHISAI [SWP82] | 2.98 ± 0.07 | 3.11 ± 0.089 | 2.99 ± 0.061 | 3.07 ± 0.067
NRYAYVLSSLMFANMKV [LRP1] | 2.47 ± 0.064 | 2.25 ± 0.058 | 2.08 ± 0.068 | 3.01 ± 0.047
EATLESKLKEEEAALLI [ESC2] | 2.86 ± 0.067 | 3.05 ± 0.058 | 2.88 ± 0.038 | 2.91 ± 0.05
WADNYERKEQEEKEKEQ [BRN1] | 3.47 ± 0.21 |  | 3.49 ± 0.11 | 3.46 ± 0.14
GLMKSYKIPKVMKDIYK [ESC2] | 3.15 ± 0.27 | 3.38 ± 0.12 | 2.42 ± 0.26 | 2.92 ± 0.11
FDDRGDVKVIMATNKIE [RPT2] | 3.12 ± 0.12 | 3.18 ± 0.15 | 3.11 ± 0.083 | 3.27 ± 0.12
GCKNGSFTLLNQLSQTN [NUT1] | 2.86 ± 0.12 | 3.05 ± 0.079 | 2.97 ± 0.095 | 3.22 ± 0.11
LQCISQINQGVPSAKPL [SNF11] | 2.98 ± 0.092 | 1.95 ± 0.081 | 2.5 ± 0.083 | 2.41 ± 0.074
AAKEGLALSSNISRDFQ [COR1] | 2.71 ± 0.089 | 3.08 ± 0.071 | 3.13 ± 0.079 | 2.76 ± 0.096
LSRPYKALKTNINFASG [CDC53] | 2.4 ± 0.049 | 2.61 ± 0.062 | 2.4 ± 0.057 | 2.66 ± 0.048
NSIDVPIRINSTEEIEY [YMR129W/POM152] | 1.76 ± 0.055 | 2.27 ± 0.058 | 2.01 ± 0.071 | 2.6 ± 0.034
AYVVNDTAPKPNIVEID [DLS1] | 3.26 ± 0.24 | 3.22 ± 0.19 | 2.97 ± 0.11 | 3.15 ± 0.19
RMIPPRMVRSIMWQLLD [SSN3] | 1.95 ± 0.18 | 1.68 ± 0.12 | 1.56 ± 0.11 | 
SIGASIADLASLEQLLG [YCS4] | 2.84 ± 0.099 | 2.94 ± 0.064 | 2.9 ± 0.076 | 2.92 ± 0.033
HLILDKLNQKYDIVKFL [GRR1] | 1.83 ± 0.041 | 1.66 ± 0.035 | 1.3 ± 0.1 | 1.81 ± 0.03
WLETYSENRDKFLQEFI [IRR1] | 2.97 ± 0.096 | 1.93 ± 0.11 | 2.58 ± 0.096 | 1.92 ± 0.1
ATIIGIISTAIADSTHV [ECM29] | 1.74 ± 0.073 | 1.65 ± 0.061 | 1.95 ± 0.066 | 1.51 ± 0.04
FQAHEITSFLLSKMENV [NAS6] | 1.79 ± 0.079 | 1.53 ± 0.045 | 1.66 ± 0.094 | 1.69 ± 0.045
DPKTSLRIVKPTVSLTI [RPC82] | 2.3 ± 0.095 | 2.3 ± 0.084 | 2.56 ± 0.14 | 3.34 ± 0.079
SRTRAHAQSKREGRHSG [RPL19A] | 2.87 ± 0.076 | 2.85 ± 0.07 | 2.83 ± 0.042 | 2.99 ± 0.037
